The record followed here is publication PMC6536502, “Structural insights into DNA recognition by AimR of the arbitrium communication system in the SPbeta phage” (Cell Discovery, 2019).

Where a chain is given by its changes, count along the chain named. Names and notes keep the numbering of the source.

T1: AimR (Bacillus phage SPbeta, UniProt O64094 1-386)
T1 sequence: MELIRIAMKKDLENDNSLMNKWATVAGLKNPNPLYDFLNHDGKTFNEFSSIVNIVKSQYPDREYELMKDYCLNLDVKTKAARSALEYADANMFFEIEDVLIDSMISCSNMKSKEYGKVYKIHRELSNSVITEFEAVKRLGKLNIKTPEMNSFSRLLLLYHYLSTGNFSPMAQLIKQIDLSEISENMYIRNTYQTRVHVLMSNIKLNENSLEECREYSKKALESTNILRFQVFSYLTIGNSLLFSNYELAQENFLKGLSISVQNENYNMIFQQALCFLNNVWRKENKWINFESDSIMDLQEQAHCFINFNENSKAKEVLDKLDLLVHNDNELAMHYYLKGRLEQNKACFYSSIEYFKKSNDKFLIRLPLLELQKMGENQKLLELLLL

T2: AimR-V129C (Bacillus phage SPbeta, UniProt O64094 1-386, C71S;C107S;C213S;C275S;C304S;C347S;V129C)
T2 sequence: T1 sequence with C71S, C107S, V129C, C213S, C275S, C304S, C347S

B1: C2A (dsDNA)
DNA 1: AATTAAATATTAGGTTTTAATAACATCTAGT
DNA 2: ACTAGATGTTATTAAAACCTAATATTTAATT
B2: C2G (dsDNA)
DNA 1: B1 DNA 1 with A2G
DNA 2: B1 DNA 2 with T30C
B3: A1T/T31'A (dsDNA)
DNA 1: B1 DNA 1 with A1T, A2C
DNA 2: B1 DNA 2 with T30G, T31A
B4: C2T (dsDNA)
DNA 1: B1 DNA 1 with A2T
DNA 2: B1 DNA 2 with T30A
B5: A1G/T31'C (dsDNA)
DNA 1: B1 DNA 1 with A1G, A2C
DNA 2: B1 DNA 2 with T30G, T31C
B6: 37 bp DNA (dsDNA)
DNA 1: ATCACTTAAATATTAGGTTTTAATAACATCTAGTGAT
DNA 2: ATCACTAGATGTTATTAAAACCTAATATTTAAGTGAT
B7: arbitrium peptide GMPRGA (peptide)
peptide: GMPRGA
notes: mature arbitrium hexapeptide of the SPbeta phage, cut from the precursor encoded by the aimP gene; also called arbitrium hexapeptide; GMPRGA peptide; source: synthetic peptide, bought: GLS Biochem
B8: AimR protein from the SPbeta phage, full length, wild type (natural protein, UniProt O64094 1-386, looked up)
chain: T1 sequence
notes: AimR of Bacillus phage SPbeta, full length (DBD residues 1-48, CTD residues 49-386), codon-optimized cDNA in pET21b; also called SPbeta AimR; wild-type AimR; source: E. coli BL21 (DE3), purified (Ni-NTA, anion exchange Source 15Q, SEC Superdex-200)
B9: AimR-N166C (C71S/C107S/C213S/C275S/C304S/C347S/N166C) (natural protein, SPbeta phage, UniProt O64094 1-386, looked up)
chain: T1 sequence with C71S, C107S, N166C, C213S, C275S, C304S, C347S
notes: AimR of Bacillus phage SPbeta, full length with six Cys-to-Ser changes and N166C, in pET15b; His tag removed with drICE as for the other mutant proteins; source: E. coli BL21 (DE3), purified as the mutant proteins (gel filtration)
B10: AimR-V129C (C71S/C107S/C213S/C275S/C304S/C347S/V129C), labelled with Alexa Fluor 488 and Cy5 (natural protein, SPbeta phage, UniProt O64094 1-386, looked up)
chain: T1 sequence with C71S, C107S, V129C, C213S, C275S, C304S, C347S
modifications: Alexa Fluor 488 C5 maleimide or Cy5 maleimide conjugated to Cys129 (double-labeled protein fraction collected)
notes: AimR of Bacillus phage SPbeta, full length with six Cys-to-Ser changes and V129C, in pET15b; His tag removed with drICE as for the other mutant proteins; also called dye-labeled protein; source: E. coli BL21 (DE3), purified as the mutant proteins; dye-conjugated and purified on a Source-Q column

The target in one data set is T1, AimR. The experiment in a line: EMSA; 5 mM Mg2+; EMSA: 25 mM Tris-HCl pH 8.0, 150 mM NaCl, 5 mM MgCl2, 5 mM DTT, 0.1 mg/ml BSA, 10% glycerol, 50 ug/ml salmon sperm DNA, 4 C, 15 min; smFRET: 20 mM phosphate pH. To be noted: protein: recombinant; tags: C-terminal 8xHis; chain copies: 2; label: FAM. (In general: In EMSA bound probe runs differently from free probe, usually more slowly.)

The target in a further data set is T2, AimR-V129C. The experiment in a line: smFRET; 1 uM DNA; EMSA: 25 mM Tris-HCl pH 8.0, 150 mM NaCl, 5 mM MgCl2, 5 mM DTT, 0.1 mg/ml BSA, 10% glycerol, 50 ug/ml salmon sperm DNA, 4 C, 15 min; smFRET: 20 mM phosphate pH. Particulars: protein: recombinant; tags: 6xHis removed by drICE; Alexa Fluor 488 and Cy5 on C129; chain copies: 2.
The target in data set [1] is B8. The experiment in a line: crystal structure; AimR (~270 µM) incubated with arbitrium peptide GMPRGA (2.7 mM), PDB 6JG9. Particulars: both partners purified.
Data set [2] concerns the molecule itself. The experiment in a line: crystal structure; full-length AimR with the 31 bp DNA fragment and 5 mM MgCl2, 2.10 Å, PDB 6JG8.
Data set [3] deals with the molecule itself. The experiment in a line: cross-linking; disulfide cross-linking of Cys166 by o-phenanthroline copper complex, AimR-N166C ~1 mg/ml, room temperature 30 min, nonreducing SDS-PAGE; alone or with DNA, unrelated peptide or arbitrium peptide.
Data set [4] concerns the molecule itself. The experiment in a line: FRET or BRET; single-molecule FRET in solution between Alexa488 and Cy5 on Cys129 of the protomers, ~150 pM labelled AimR V129C, 25 °C, pH 7.4, 20 mM phosphate, 100 mM NaCl, 0.01% Tween 20; peptides titrated in. (In BRET a luciferase serves as donor, and the signal depends on an acceptor being close.)

On to B1, for which the binding signal in the data set with AimR is ~8 fold lower binding than WT DNA.

Turning to B2, in the data set with AimR, the binding signal is ~9 fold lower binding than WT DNA.

Consider B3, for which the binding signal in the data set with AimR was ~7 fold lower affinity than WT DNA.

With B4, the binding signal with AimR is ~42 fold lower binding than WT DNA.

With B5, in the data set with AimR, the binding signal was ~19 fold lower affinity than WT DNA.

For the molecule B6, the binding result in the data set with AimR-V129C was “binds”.

For the molecule B7, the binding result in data set [1] is given as “binds”.

In general, stoichiometry N refers to a count of units in the complex or per binding partner. On to B8, for which the “stoichiometry N” value in data set [2] came out at 2.

For B9, the “stoichiometry N” value in data set [3] turned out to be 2.

Regarding B10, in data set [4], the binding result is given as “binds”.
